Results on one molecule are retold here after article PMC10917784.

This experiment deals with Trastuzumab. The experiment is described as follows: SPR; antibody constructs immobilised on a Protein L Series S CM5 chip, increasing concentrations of Fc receptor flushed; Biacore 8K+, 25 °C, neutral pH; steady state affinity model. The note with it: remark: other sources report otherwise. On the technique in general: In SPR one partner is held on a chip, and binding of the other changes the refractive index at the surface.

B1: human FcγRIIa ECD, P12318 34-217 (receptor)
chain: QAAAPPKAVLKLEPPWINVLQEDSVTLTCQGARSPESDSIQWFHNGNLIPTHTQPSYRFKANNNDSGEYTCQTGQTSLSDPVHLTVLSEWLVLQTPHLEFQEGETIMLRCHSWKDKPLVKVTFFQNGKSQKFSHLDPTFSIPQANHSHSGDYHCTGNIGYTLFSSKPVTITVQVPSMGSSSPMG
The molecule B1 displayed a Kd of 543 nM.

Broadly, the Kd is the free concentration of one partner at which half of the binding sites on the other are occupied at equilibrium, for simple one-to-one binding.
